Test system: Nc1ncnc2c1ncn2[C@@H]1O[C@H](COP(=O)(O)OP(=O)(O)OP(=O)(O)O)[C@@H](O)[C@H]1O
Assay: purified protein
Conditions: 22 °C, pH 7.5, 1 mM Mg acetate, NdeI-linearized pBR322 dsDNA, ATP sites in RecB and RecD
Text: TLC ATPase assay with [γ-32P]ATP tracer on RecBCD^Ps (RecBCD enzyme of Pseudomonas syringae Lz4W)

RecBCD^Ps (RecBCD enzyme of Pseudomonas syringae Lz4W) (Pseudomonas syringae)
Km: 57.8 ± 10.1 µM | kcat: 245 s⁻¹

From publication PMC5959072, “Biochemical characterization of RecBCD enzyme from an Antarctic Pseudomonas species and identification of its cognate Chi (χ) sequence” (PLoS ONE, 2018)
